Laboratory results taken from patent US20240293499A1 (SUNNYBROOK RESEARCH INSTITUTE, published 2024).

Experiments:
[1] = target: T1, murine VISTA (mVISTA), recombinant; form not stated (mouse, UniProt Q9D659 33-191, limits assumed); assay: SPR single-cycle kinetics (FIG. 8)
T1 construct: The SPR method names only hVISTA-Fc as analyte for the nanobodies; also called mouse VISTA
T1 sequence (looked up): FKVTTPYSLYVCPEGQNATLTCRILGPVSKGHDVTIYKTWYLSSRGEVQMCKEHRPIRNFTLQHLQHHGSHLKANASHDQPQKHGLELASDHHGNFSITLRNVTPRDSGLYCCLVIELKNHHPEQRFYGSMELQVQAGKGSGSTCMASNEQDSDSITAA

[2] = target: T2, human VISTA on primary human immune cells (CD14+CD16- classical monocytes of PBMCs) (human, UniProt Q9H7M9 33-311); assay: flow cytometry on human PBMC, gate CD14+CD16- monocytes, ΔMFI against control, 5 donors
T2 construct: whole, on cells; Native protein on donor cells; also called hVISTA
T2 sequence (looked up): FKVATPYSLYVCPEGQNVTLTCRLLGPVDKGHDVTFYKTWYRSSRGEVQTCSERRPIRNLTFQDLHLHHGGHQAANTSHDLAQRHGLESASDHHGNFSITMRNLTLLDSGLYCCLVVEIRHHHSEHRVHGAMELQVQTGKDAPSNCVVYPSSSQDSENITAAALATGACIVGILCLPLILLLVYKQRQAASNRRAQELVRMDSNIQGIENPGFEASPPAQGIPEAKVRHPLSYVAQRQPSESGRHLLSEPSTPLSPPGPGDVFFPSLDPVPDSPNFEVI
Experimental: PBMCs had their Fc receptors blocked with Human TruStain FcX (422301; BioLegend) then incubated with 2.5 μg of mAb, mouse IgG1 (401408; BioLegend), or rat IgG2a (400565; BioLegend) or 15 μg Nb for 1 hour at 4° C. After washing with PBS, the PBMCs were incubated with secondary antibodies (1 μL; FITC anti-mouse IgG1, FITC anti-HA, or FITC anti-rat IgG2a; 406605, 901507, or MRG2a-83; BioLegend) or control FITC anti-VISTA antibodies (clone B7H5DS8; 11-1088-42; eBioscience) for 40 minutes at 4° C. A staining cocktail consisting of PE/Cy5 anti-CD11b (101210; BioLegend), APC/Cy7 anti-CD14 (325620; BioLegend), Alexa Flour 700 anti-CD16 (302026; BioLegend), PE/Cy7 anti-CD4 (317414; BioLegend), and Alexa Flour 647 anti-CD8 (301022; BioLegend) was then added to the PBMCs and incubated for 20 minutes at 4° C. Finally, the PBMCs were washed and resuspended in 3 μM DAPI (D1306; Thermo Fisher Scientific) and cytometric profiles recorded using a BD LSR II flow cytometer (BD) maintained by The Centre for Flow Cytometry & Scanning Microscopy (CCSM) at Sunnybrook Research Institute (SRI; Sunnybrook Health Sciences Centre, Toronto, ON, Canada). The same protocol was performed on murine splenocytes to measure the binding of rat anti-hmVISTA mAbs to murine immune cells.

[3] = target: T3, hVISTA-Fc (produced in house) (human, UniProt Q9H7M9 33-194, limits assumed); assay: SPR (BIAcore T200), single-cycle kinetics, Nb captured on anti-His chip, hVISTA-Fc injected at 1.9, 3.8, 7.5, 15, 30 nM, 1:1 fit
T3 construct: Analyte in the SPR of the nanobodies; not shown: Fc
T3 sequence (looked up): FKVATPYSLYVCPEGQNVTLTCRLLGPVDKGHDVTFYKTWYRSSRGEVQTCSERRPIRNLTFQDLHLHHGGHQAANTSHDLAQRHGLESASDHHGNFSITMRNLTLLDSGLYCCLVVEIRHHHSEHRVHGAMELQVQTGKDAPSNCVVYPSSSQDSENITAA
Experimental: Binding kinetics of mAbs and Nbs to hVISTA and mVISTA were obtained by surface plasmon resonance (SPR) using a BIAcore T200 (Cytiva) and HBS running buffer (20 mM of HEPES pH 7.4, 150 mM NaCl, 0.005% Tween-20, 3.4 mM EDTA). Briefly, anti-histidine antibodies were immobilized on a CM5 chip (29149604; Cytiva) using the His capture kit (28995056; Cytiva) following manufacture's protocol. For mAbs, VISTA was captured by flowing […] of hVISTA-COMP-his or mVISTA-COMP-his at a flow rate of 30 μL/min. Sensorgrams were collected using single-cycle kinetics covering five mAb concentrations (1:2 serial dilutions). For Nbs, solutions of each nanobody ([…]) were flown over an anti-histidine-coated chip. Five concentrations (1:2 serial dilutions) of hVISTA-Fc (produced in house) were then injected at a flow rate of 30 μL/min. KD, Kₒₙ, and Koff were calculated by analyzing the sensorgrams with a 1:1 Langmuir binding model²³ after subtracting reference sensorgrams.

binding result [1]: no binding | binding result [2]: binds | Kd [3]: 7.5 nM
B1: anti-hVISTA nanobody hVISTANb7 (VHH)
VHH: QVQLQESGGGLVYPGGSLRLSCTASGFAFTNAYMNWVRQAPGKGAEWVSGITRDSNRTSYADSVKGRFTISRDNAKNTLYLQMDSLKSDDTALYYCNAEPSGWWLDDDYWGQGTQVTVSS
notes: Llama nanobody made in E. coli WK6; not shown: HA tag and His tag (pMECS vector; purified on a His-Trap column, detected with anti-HA)
